Results on 3 molecules are retold here after patent US12122830 (ABL BIO, dated 2024).

Where a chain is given by its changes, count along the chain named.

The target of assay [1] is T1, recombinant mouse ROR1 protein (Acrobiosystems, RO1-M5221) (mouse, UniProt Q9Z139 30-406).
T1 construct: extracellular domain; Bought; also called mouse ROR1 antigen
Description: ELISA, recombinant mouse ROR1 protein coated at 1 µg/ml, IgG titrated, HRP anti-Fab detection. As for the experimental part: The anti-ROR1 antibody-antigen binding affinity was estimated by using an ELISA-based solution binding test. Specifically, a 96-well microtiter plate (Nunc-Immuno Plates, NUNC) was coated with the ROR1 protein at a concentration of 1 µg/ml in a PBS solution as described below at 4° C. for 16 hours, and non-specific binding sites were blocked with 3% BSA (bovine serum albumin) for 2 hours. For this, as the ROR1 protein, in case of human ROR1, ROR1-Fc of Example 1 or recombinant ROR1-His (Sino Biological, 13968-H08H) was used. The ROR1-His used for ELISA was a protein of sino biological company (13968-H08H) as described in the above sentence, and ROR1-His of Example 1 or recombinant mouse ROR1 protein was used (Acrobiosystems, RO1-M5221-100 µg).
Then, after adding the anti-ROR1 antibody prepared in Example 3 at the concentration described in FIG. 2 into the microtiter plate on a 96-well microtiter plate, the binding capacity was analyzed with ELISA as follows. Specifically, after constant temperature treatment for 2 hours, the plate was washed with PBS comprising 0.05% tween 20 5 times, and then a HRP-conjugated Fab multiclonal antibody reagent (Pierce, 31414) was diluted at 1:10,000 ratio, and was put into the washed microtiter plate, and it was incubated at 37° C. for 1 hour, and the ROR1 antibody bound to the plate was detected. After reaction, it was color-developed by using TMB (Tetramethylbenzidine, Sigma, T0440). The enzymatic reaction was stopped by 0.5 mol/L of sulfuric acid, and the absorbances at 450 nm and 650 nm were measured by using a micro plate reader device (molecular device) (450 nm-650 nm).
On the technique in general: ELISA stands for enzyme-linked immunosorbent assay.

The target of assay [2] is T2, mouse ROR1 expressed on the cell surface (CHO-mouse ROR1) (mouse, UniProt Q9Z139 30-937).
T2 construct: whole, on cells; Temporarily transfected CHO cells
Briefly: flow cytometry on CHO cells transiently overexpressing mouse ROR1, FITC anti-human Fc detection, MFI ratio to 2nd Ab. As for the experimental part:
For this experiment, the degree of binding of the anti-ROR1 antibody and ROR1 was measured by using FACSCalibur (BD Biosciences) device with the cell lines as follows, the cell lines artificially overexpressing the ROR1 protein by transfecting an ROR1 gene temporarily (CHO-human ROR1, CHO-human ROR2, CHO-mouse ROR1) or stably (MC38-human ROR1) (FIG. 5 and FIG. 7, respectively) or the cell lines expressing ROR1 (JeKo-1, Mino) (FIG. 6) or a cell line not expressing ROR1 (MCF7) (FIG. 6). […] JeKo-1, Mino, CHO-human ROR1, CHO-mouse ROR1 and MC38-human ROR1 are all cell lines expressing human ROR1 or mouse ROR1.
Specifically, after disassociating each cell line and washing in PBS, the number of cells was counted and set as 2×10^5 cells/200 µl PBS, and then each ROR1 monoclonal antibody in Example 3 was prepared in 10 µg/mL or as 5 fold-diluted from 10 µg/mL, and was reacted at 4° C. for 1 hour. After reaction, cells were washed in PBS and then the FITC-labeled constant region (Fc)-specific antibody (Goat anti-human IgG FITC conjugate, Fc specific, Sigma, F9512, concentration: 2.0 mg/ml) was suspended in 2 µl/1×10^5 cells/200 µl PBS, and it was reacted at 4° C. for 1 hours. The confirmation of expression degree of human ROR1, human ROR2 and mouse ROR1 that were temporarily overexpressed was analyzed by using a commercially available antibody for FACS analysis (anti-ROR1: R&D Systems, FAB2000G, anti-ROR2: R&D, FAB20641P). After reaction, cells were washed in PBS and decoded by using a FACSCalibur device. The negative control group (2nd Ab) was treated only with the FITC-labeled constant region (Fc)-specific antibody. The result for the peak shift in the experimental group treated with each ROR1 monoclonal antibody was compared to the result for the shift in the control group (Mean Fluorescence Intensity Ratio, MFI Ratio: MFI of anti-ROR1/MFI of 2nd Ab).

T1 sequence (Q9Z139 30-406): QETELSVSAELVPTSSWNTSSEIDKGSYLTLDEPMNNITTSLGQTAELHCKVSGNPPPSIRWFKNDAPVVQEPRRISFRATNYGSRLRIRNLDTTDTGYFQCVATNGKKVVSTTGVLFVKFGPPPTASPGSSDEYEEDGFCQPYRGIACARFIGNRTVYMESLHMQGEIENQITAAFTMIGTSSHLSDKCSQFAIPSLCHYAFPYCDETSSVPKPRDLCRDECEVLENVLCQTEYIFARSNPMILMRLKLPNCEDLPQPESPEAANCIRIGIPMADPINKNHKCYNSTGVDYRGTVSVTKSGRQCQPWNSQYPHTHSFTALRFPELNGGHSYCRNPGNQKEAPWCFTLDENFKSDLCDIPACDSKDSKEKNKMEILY
T2 sequence (Q9Z139 30-937): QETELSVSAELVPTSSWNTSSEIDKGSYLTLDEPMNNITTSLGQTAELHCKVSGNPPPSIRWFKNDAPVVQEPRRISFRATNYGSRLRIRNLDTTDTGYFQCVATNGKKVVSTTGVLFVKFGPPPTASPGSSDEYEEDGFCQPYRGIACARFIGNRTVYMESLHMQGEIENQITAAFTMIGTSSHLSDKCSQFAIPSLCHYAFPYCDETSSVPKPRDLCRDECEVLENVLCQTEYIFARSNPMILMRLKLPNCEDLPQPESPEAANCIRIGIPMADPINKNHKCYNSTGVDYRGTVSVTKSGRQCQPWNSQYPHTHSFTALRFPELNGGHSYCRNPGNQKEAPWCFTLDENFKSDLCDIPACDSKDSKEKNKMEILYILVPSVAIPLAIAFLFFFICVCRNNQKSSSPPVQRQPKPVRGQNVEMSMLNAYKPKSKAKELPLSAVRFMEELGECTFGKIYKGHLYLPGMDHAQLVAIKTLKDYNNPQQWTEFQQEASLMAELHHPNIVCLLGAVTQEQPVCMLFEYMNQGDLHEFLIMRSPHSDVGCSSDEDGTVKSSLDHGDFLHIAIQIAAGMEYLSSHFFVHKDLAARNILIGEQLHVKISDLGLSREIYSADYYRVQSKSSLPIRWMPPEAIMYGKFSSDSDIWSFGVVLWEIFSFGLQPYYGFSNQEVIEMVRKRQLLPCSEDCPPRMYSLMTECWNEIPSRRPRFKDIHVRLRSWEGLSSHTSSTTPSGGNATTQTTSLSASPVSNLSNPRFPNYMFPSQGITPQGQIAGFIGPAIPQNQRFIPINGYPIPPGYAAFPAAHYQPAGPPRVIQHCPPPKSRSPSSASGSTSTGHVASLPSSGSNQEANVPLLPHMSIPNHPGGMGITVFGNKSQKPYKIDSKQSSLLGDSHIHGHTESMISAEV

B1: A2F2 anti-ROR1 IgG antibody (antibody, V domains shown)
VH: EVQLLESGGGLVQPGGSLRLSCAASGFTFSDYYMSWVRQAPGKGLEWVSSISPDGSNTYYADSVKGRFTISRDNSKNTLYLQMNSLRAEDTAVYYCAKNLRAFDYWGQGTLVTVSS
VL: QSVLTQPPPASGTPGQRVTISCSGSSSNIGSNTVYWYQQLPGTAPKLLIYANSQRPSGVPDRFSGSKSGTSASLAISGLRSEDEADYYCGSWDYSLSGYVFGGGTKLTVLG
Regarding B1, the binding result in assay [1] and in assay [2] was “binds” throughout.

B2: D2B12 anti-ROR1 IgG antibody (antibody, V domains shown)
VH: EVQLLESGGGLVQPGGSLRLSCAASGFTFSNYDMSWVRQAPGKGLEWVSSISPSSGSSIYYADSVKGRFTISRDNSKNTLYLQMNSLRAEDTAVYYCAKAPGWCQAPSCYYDNAMDVWGQGTLVTVSS
VL: B1 VL with P9S, S31N, T33D, Y35S, A51D, N52D, S91A, Y94D
For the molecule B2, the binding result in assay [1] and in assay [2] was “binds” in each case.

B3: A2F3 anti-ROR1 IgG antibody (antibody, V domains shown)
VH: EVQLLESGGGLVQPGGSLRLSCAASGFTFSSYDMSWVRQAPGKGLEWVSWISPGGGSKYYADSVKGRFTISRDNSKNTLYLQMNSLRAEDTAVYYCARVNGRFDYWGQGTLVTVSS
VL: B1 VL with P9S, S31N, T33N, Y35S, N52D, Q54H, G90A, S91T
Regarding B3, the binding result in assay [1] and in assay [2] was “binds” throughout.
